# Assay results: patent US20240309109A1 (MorphoSys, published 2024)
# Numbering of substitutions follows the chain as printed.
# B1: MOR03128 Fab (Fab, V domains shown)
# VH: QVQLKESGPALVKPTQTLTLTCTFSGFSLSSSGMSVSWIRQPPGKALEWLARIYSDDSKSYSTSLKTRLTISKDTSKNQVVLTMTNMDPVDTATYYCARAAHWNGPLFDVWGQGTLVTVSS
# VL: DIELTQPPSVSVAPGQTARISCSGDNIGHYYAHWYQQKPGQAPVVVIYDDNDRPSGIPERFSGSNSGNTATLTISGTQAEDEADYYCQAYTGDGGRVFGGGTKLTVLG
# notes: Fab format
# B2: MOR03088 Fab (Fab, V domains shown)
# VH: QVQLVESGGGLVQPGGSLRLSCAASGFTFSSYAMNWVRQAPGKGLEWVSGISSWGSSTYYADSVKGRFTISRDNSKNTLYLQMNSLRAEDTAVYYCAREDGSYMTDYFAYWGQGTLVTVSS
# VL: DIELTQPPSVSVAPGQTARISCSGDNIGHYYVSWYQQKPGQAPVLVIYSDSNRPSGIPERFSGSNSGNTATLTISGTQAEDEADYYCQSYNGTYVFGGGTKLTVLG
# notes: Fab format
# B3: MOR03088 IgG (antibody, V domains shown)
# VH: B2 VH
# VL: B2 VL
# B4: MOR03087 IgG1 (antibody, V domains shown)
# VH: QVQLVESGGGLVQPGGSLRLSCAASGFTFSSYYMNWVRQAPGKGLEWVSGISGDPSNTYYADSVKGRFTISRDNSKNTLYLQMNSLRAEDTAVYYCARDLPLVYTGFAYWGQGTLVTVSS
# VL: DIELTQPPSVSVAPGQTARISCSGDNLRHYYVYWYQQKPGQAPVLVIYGDSKRPSGIPERFSGSNSGNTATLTISGTQAEDEADYYCQTYTGGASLVFGGGTKLTVLG
# B5: MOR06185 IgG (antibody, V domains shown)
# VH: B4 VH with G50A, G53M, D54N, P55G, S56D, N57Y, T58I, Y59S
# VL: B4 VL
# B6: MOR06187 IgG (antibody, V domains shown)
# VH: B4 VH with G50A, G53S, D54N, P55G, S56D, N57I
# VL: B4 VL
# B7: MOR06184 IgG (antibody, V domains shown)
# VH: B4 VH with G50A, G53H, P55G, S56N, N57V, T58K
# VL: B4 VL
# B8: MOR06188 IgG (antibody, V domains shown)
# VH: B4 VH with G50A, G53T, D54N, P55G, S56W, N57Q
# VL: B4 VL
# B9: MOR06186 IgG (antibody, V domains shown)
# VH: B4 VH with G50A, S52N, G53L, D54S, P55G, N57A, T58K
# VL: B4 VL
# B10: MOR03087 Fab (Fab, V domains shown)
# VH: B4 VH
# VL: B4 VL
# notes: Fab format
# B11: MOR06183 IgG (antibody, V domains shown)
# VH: B4 VH with S52N, G53M, D54E, P55S, S56T, N57R, T58I
# VL: B4 VL
# B12: MOR06200 IgG (antibody, V domains shown)
# VH: B4 VH with G50A, G53N, D54N, P55G, S56N, N57V
# VL: B4 VL
# notes: copies: 2 + 2
# B13: MOR03085 IgG1 (antibody, V domains shown)
# VH: QVQLVQSGAEVKKPGASVKVSCKASGYTFTGYYINWVRQAPGQGLEWMGWIFPNGGSTGYAQKFQGRVTMTRDTSISTAYMELSSLRSEDTAVYYCARGNIFIFDYWGQGTLVTVSS
# VL: DIVLTQPPSVSGAPGQRVTISCSGSSSNIGNNYVSWYQQLPGTAPKLLIYGDDQRPSGVPDRFSGSKSGTSASLAITGLQSEDEADYYCQSYGTFSSFVFGGGTKLTVLG
# B14: MOR03081 IgG1 (antibody, V domains shown)
# VH: QVQLVESGGGLVQPGGSLRLSCAASGFTFSSYALHWVRQAPGKGLEWVSSISGLGSTTYYADSVKGRFTISRDNSKNTLYLQMNSLRAEDTAVYYCARYHYEYHYFSSGFDNWGQGTLVTVSS
# VL: DIVLTQSPATLSLSPGERATLSCRASQTGSTSYLAWYQQKPGQAPRLLIYDASKRATGVPARFSGSGSGTDFTLTISSLEPEDFATYYCHQYYNVPHTFGQGTKVEIKR
# B15: MOR03127 Fab (Fab, V domains shown)
# VH: QVQLVQSGAEVKKPGESLKISCKGSGYSFSTSWVGWVRQMPGKGLEWMGIIDPDISYTSYSPSFQGQVTISADKSISTAYLQWSSLKASDTAMYYCARYLMGLGYDVWGQGTLVTVSS
# VL: DIALTQPASVSGSPGQSITISCTGTSSDVGAINYVSWYQQHPGKAPKLMIYDVNKRPSGVPDRFSGSKSGNTASLTISGLQAEDEADYYCGSYTMQVGSYVFGGGTKLTVLG
# notes: Fab format
# B16: MOR03102 IgG1 (antibody, V domains shown)
# VH: QVQLQESGPGLVKPGETLSLTCTVSGGSISGNYWSWIRQAPGKGLEWIGDYHGSTYYNPSLKGRVTISVDTSKNQFSLKLSSVTAEDTAVYYCAREQYHWGLAWTGFDNWGQGTLVTVSS
# VL: DIELTQPPSVSVAPGQTARISCSGDNLGHYYVSWYQQKPGQAPVLVIYDDSDRPSGIPERFSGSNSGNTATLTISGTQAEDEADYYCGAYAMHMTVFGGGTKLTVLG
# Key:
# [1] = target: T1, human CD38 Fc-fusion aa 45-300 (human, UniProt P28907 45-300); assay: SPR (Biacore), Fab on immobilized CD38 Fc-fusion; 84 taken as the standard deviation (n = 4) by footnote d
# T1 construct: Expressed in HEK293 behind a human Vkappa leader, which is left out here; also called CD38-Fc fusion protein; CD38 Fc-Fusion protein
# [2] = target: CD38 (antigen of the Bioveris affinity determination) (Homo sapiens (Human), UniProt P28907 45-300, limits assumed); assay: Bioveris, Fab format
# [3] = target: T1, human CD38 Fc-fusion aa 45-300; assay: SPR (Biacore), Fab format
# [4] = target: T1, human CD38 Fc-fusion aa 45-300; assay: SPR (Biacore), Fab on immobilized CD38 Fc-fusion
# human CD38 on cells [5] = target: T2, human CD38 on cells (human, UniProt P28907 1-300); assay: FACS Scatchard on RPMI8226 cells; * different experiment
# T2 construct: The cell that carried CD38 is named under assay in each row; also called CD38 on Raji, RPMI8226, OPM2, CCRF-CEM, human erythrocytes, CD38 CHO-K1 transfectants
# [6] = target: T3, Cynomolgus CD38 on Erythrocytes (cynomolgus monkey, UniProt Q5VAN0); assay: FACS, Fab format, cynomolgus erythrocytes; column taken from the order of panel A [Continued]
# T3 construct: native protein on erythrocytes (pellet of the density gradient)
# [7] = target: T4, Cynomolgus CD38 on PBMCs (Lymphocytes) (cynomolgus monkey, UniProt Q5VAN0); assay: FACS, Fab format, cynomolgus lymphocytes (PBMC fraction); column taken from the order of panel A [Continued]
# T4 construct: native protein on lymphocytes of the PBMC fraction of whole blood
# [8] = target: T1, human CD38 Fc-fusion aa 45-300; assay: ELISA on CD38 Fc-fusion protein, IgG format
# human CD38 on cells [9] = target: T2, human CD38 on cells; assay: FACS Scatchard on CCRF-CEM cells, single measurement; CCRF-CEM cells, FACS Scatchard; single measurement
# human CD38 on cells [10] = target: T2, human CD38 on cells; assay: FACS Scatchard on RPMI8226 cells, single measurement; RPMI8226 cells, FACS Scatchard; single measurement
# human CD38 on cells [11] = target: T2, human CD38 on cells; assay: FACS Scatchard on OPM2 cells, mean from 2 measurements; OPM2 cells, FACS Scatchard; mean from 2 measurements
# human CD38 on cells [12] = target: T2, human CD38 on cells; assay: FACS Scatchard on OPM2 cells, IgG format; * different experiment; OPM2 cells, FACS Scatchard, IgG format; different experiment
# human CD38 on cells [13] = target: T2, human CD38 on cells; assay: cell-based or functional assay
# human CD38 on cells [14] = target: T2, human CD38 on cells; assay: FACS Scatchard, IgG1 on Raji cells
# human CD38 on cells [15] = target: T2, human CD38 on cells; assay: FACS Scatchard on OPM2 cells, IgG format
# human CD38 on cells [16] = target: T2, human CD38 on cells; assay: FACS Scatchard on CCRF-CEM cells, single measurement
# human CD38 on cells [17] = target: T2, human CD38 on cells; assay: FACS Scatchard on RPMI8226 cells, single measurement
# human CD38 on cells [18] = target: T2, human CD38 on cells; assay: FACS Scatchard on OPM2 cells, mean from 2 measurements
# human CD38 on cells [19] = target: T2, human CD38 on cells; assay: FACS Scatchard on OPM2 cells, IgG format; * different experiment
# human CD38 on cells [20] = target: T2, human CD38 on cells; assay: FACS Scatchard on RPMI8226 cells
# [21] = target: T3, Cynomolgus CD38 on Erythrocytes; assay: FACS, Fab format, cynomolgus erythrocytes
# [22] = target: T4, Cynomolgus CD38 on PBMCs (Lymphocytes); assay: FACS, Fab format, cynomolgus lymphocytes (PBMC fraction)
# [23] = target: T1, human CD38 Fc-fusion aa 45-300; assay: SPR (Biacore), Fab on immobilized CD38 Fc-fusion; 54 is the standard deviation (n = 3)
binder,measurement,setting,value
B1,Kd,[1],117 nM
B2,Kd,[2],2.15 nM
same,Kd,[3],41.4 nM
same,Kd,[4],95 nM
same,EC50,human CD38 on cells [5],24.6 nM
same,binding result,[6],binds
same,binding result,[7],binds
B3,ELISA CD38 Fc-Fusion protein (% Reactivity of MOR03087),[8],18%
same,EC50,human CD38 on cells [9],25.5 nM
same,EC50,human CD38 on cells [10],24.6 nM
same,EC50,human CD38 on cells [11],2.6 nM
same,EC50,human CD38 on cells [12],15.3 nM
B4,ADCC RPMI8226 EC50,human CD38 on cells [13],0.14 nM
same,CDC CHO EC50,human CD38 on cells [13],3.4 nM
same,Kd,human CD38 on cells [14],5 nM
same,EC50,human CD38 on cells [15],5.7 nM
same,ELISA CD38 Fc-Fusion protein (% Reactivity of MOR03087),[8],100%
same,EC50,human CD38 on cells [16],14.7 nM
same,EC50,human CD38 on cells [17],6.3 nM
same,EC50,human CD38 on cells [18],17.5 nM
same,EC50,human CD38 on cells [19],17.4 nM
B5,EC50,human CD38 on cells [15],11.5 nM
same,ELISA CD38 Fc-Fusion protein (% Reactivity of MOR03087),[8],142%
B6,EC50,human CD38 on cells [15],9.37 nM
same,ELISA CD38 Fc-Fusion protein (% Reactivity of MOR03087),[8],145%
B7,EC50,human CD38 on cells [15],10.6 nM
same,ELISA CD38 Fc-Fusion protein (% Reactivity of MOR03087),[8],150%
B8,EC50,human CD38 on cells [15],20.1 nM
same,ELISA CD38 Fc-Fusion protein (% Reactivity of MOR03087),[8],140%
B9,EC50,human CD38 on cells [15],15.6 nM
same,ELISA CD38 Fc-Fusion protein (% Reactivity of MOR03087),[8],117%
B10,Kd,[2],0.0488 nM
same,Kd,[3],5.68 nM
same,EC50,human CD38 on cells [20],5.37 nM
same,binding result,[21],binds
same,binding result,[22],binds
B11,EC50,human CD38 on cells [15],8.91 nM
same,ELISA CD38 Fc-Fusion protein (% Reactivity of MOR03087),[8],106%
B12,EC50,human CD38 on cells [15],7.15 nM
same,ELISA CD38 Fc-Fusion protein (% Reactivity of MOR03087),[8],144%
B13,Kd,human CD38 on cells [14],10 nM
B14,Kd,human CD38 on cells [14],2.5 nM
B15,Kd,[23],168 nM
B16,Kd,human CD38 on cells [14],5 nM
